The values below come from patent US7186697.

For the assay, the target named is recombinant HIV-1 gp120 (American Biotechnology, Inc.) (HIV-1). Kind of assay: ELISA on gp120-coated plates, culture medium. Background: ELISA stands for enzyme-linked immunosorbent assay.

For the substance “Fab105-Protamine fusion protein (from UniProt P04553 1-51)”, the binding activity against HIV gp120 in culture medium (µg/ml/24 hours) came out at 0.1.
